Where “and” joins values, the source holds several entries; their conditions need not be identical. Equal entries are not always repeated.
Key:
Settings in all cases: 20 nM; 72 h
MCF10A [1] = test: percent viability (nuclei count relative to siNT); higher = more viable cells
Procedure: (§1)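 After 72 h, cells were fixed and stained with Hoechst and anti-fibrillarin, and nucleoli per nucleus were counted with CellProfiler. Values are plate-adjusted percent effect for the one-nucleolus and 5+ nucleoli phenotypes, normalised to siNT (0%) and to the positive controls siNOL11 or siKIF11 (100%), as the mean of biological triplicates. Percent viability is the nuclei count relative to siNT.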

MCF10A [2] = test: 5+ nucleoli phenotype percent effect (relative to siNT 0% and siKIF11 100%); higher = more cells with five or more nucleoli
Procedure: as §1

MCF10A [3] = test: one-nucleolus phenotype percent effect (relative to siNT 0% and siNOL11 100%); higher = more cells with one nucleolus (ribosome biogenesis inhibition)
Procedure: as §1

Row | Sequence | percent viability (MCF10A [1]) | 5+ nucleoli phenotype percent effect (MCF10A [2]) | one-nucleolus phenotype percent effect (MCF10A [3])
1 | CCAGCCACGGACUGAGAGUGCAU [hsa-miR-4691-3p] | 51.4% | 26.3% | -11.4%
2 | CUUAUAUCAGAGGCUGUGGG [hsa-miR-6083] | 40.8% | -34.4% | 28.6%
3 | UGGGGAGCGGCCCCCGGGUGGG [hsa-miR-1343-5p] | 86% | 48.5% | -31.1%
4 | ACAGUCUGCUGAGGUUGGAGC [hsa-miR-622] | 86.2% | -4.39% | 8.72%
5 | UGCCCCAACAAGGAAGGACAAG [hsa-miR-5699-5p] | 43.1% | 43.5% | -18.9%
6 | CAUGCUGACCUCCCUCCUGCCCCAG [hsa-miR-4728-3p] | 69.7% | 20.8% | -12.7%
7 | UAAUGCCCCUAAAAAUCCUUAU [hsa-miR-365a-3p] | 89.5% | 6.01% | 2.74%
8 | UAAAACUUUAAGUGUGCCUAGG [hsa-miR-5582-3p] | 72.9% | 7.07% | -11.3%
9 | UCCCACGUUGUGGCCCAGCAG [hsa-miR-662] | 128% | 35.3% | -20.4%
10 | GGGUGGGGAUUUGUUGCAUUAC [hsa-miR-92a-2-5p] | 42.2% | -28.2% | 28.3%
11 | UGUUCCUCUGUCUCCCAGAC [hsa-miR-4326] | 32.4% | -25.5% | 18.8%
12 | AAUCCUUGGAACCUAGGUGUGAGU [hsa-miR-362-5p] | 36.6% | -6.28% | -1.23%
13 | ACUGGACUUGGAGUCAGAAA [hsa-miR-378d] | 25.4% and 31.6% | 9.46% and 4.63% | 2.4% and 10.6%
14 | AACGCCAUUAUCACACUAAAUA [hsa-miR-122-3p] | 131% | 35.4% | -17.4%
15 | UAUUGCACUUGUCCCGGCCUGU [hsa-miR-92a-3p] | 88.8% | 4.47% | -3.22%
16 | AGGUUGCCUGUGAGGUGUUCA [hsa-miR-656-5p] | 17.5% | -1.12% | 10.7%
17 | AGCUGUCUGAAAAUGUCUU [hsa-miR-626] | 50.2% | 25.1% | 2.9%
18 | GUGGUUAUCCCUGCUGUGUUCG [hsa-miR-487a-5p] | 42% | 24.8% | -14.4%
19 | CCACGUGCUUCUCUUUCCGCAG [hsa-miR-6767-3p] | 69% | -26% | 13.2%
20 | UAGACGUGGUGAAGGAUUGAGUG [hsa-miR-6863] | 47.3% | -16.5% | 1.02%
21 | UUGCUAGUUGCACUCCUCUCUGU [hsa-miR-449c-3p] | 27.2% | -15.1% | 7.23%
22 | CCCUCAUCUUCCCCUCCUUUC [hsa-miR-6891-3p] | 35.9% | -10.8% | 36.8%
23 | GGGGCUGUGAUUGACCAGCAGG [hsa-miR-4675] | 24.1% | -11.5% | 10.5%

Row | Sequence | percent viability (MCF10A [1]) | 5+ nucleoli phenotype percent effect (MCF10A [2]) | one-nucleolus phenotype percent effect (MCF10A [3])
24 | ACAGAUUCGAUUCUAGGGGAAU [hsa-miR-10b-3p] | 53.5% | -9.13% | 15.6%
25 | GGCUCAUGUGUCUGUCCUCUUC [hsa-miR-6847-3p] | 44.2% | 1.91% | -18%
26 | CCCCGGGGAGCCCGGCG [hsa-miR-4532] | 148% | 45.2% | -24.8%
27 | UAGGUAGUUUCAUGUUGUUGGG [hsa-miR-196a-5p] | 33.5% | 23.8% | -16.9%
28 | AGAGGUUAUCCGUGUUAUGUUC [hsa-miR-655-5p] | 32.4% | -32.8% | 22.9%
29 | AAUCCUUGCUACCUGGGU [hsa-miR-500b] | 32.3% | 12.8% | -0.735%
30 | UCCCUACCCCUCCACUCCCCA [hsa-miR-3162-3p] | 75.9% | 53.4% | -5.78%
31 | AAGAGAACUGAAAGUGGAGCCU [hsa-miR-3925-5p] | 49.5% | -8.02% | -13%
32 | UUACACACAACUGAGGAUCAUA [hsa-miR-3941] | 16.8% | 0.22% | 7.76%
33 | UGGGGUAAGGAUAGGAGGGUCA [hsa-miR-6881-5p] | 24.8% | -3.46% | 4.74%
34 | AAAAGUAAUUGCGGUUUUUGCC [hsa-miR-548am-5p] | 139% | 39.6% | -17.6%
35 | UAUGUAGUAGUCAAAGGCAUUU [hsa-miR-7852-3p] | 81.4% | -8.45% | -3.81%
36 | GUCCUCCAGGCCAUGAGCUGCGG [hsa-miR-4691-5p] | 89.2% | 47.9% | -11.3%
37 | UGCUUAAGUUGUACCAAGUAU [hsa-miR-4720-3p] | 53.4% | -20.7% | 7.73%
38 | AGGUCUGCAUUCAAAUCCCCAGA [hsa-miR-6503-5p] | 43.4% | 10.7% | 3.05%
39 | UCGCCUCCUCCUCUCCC [hsa-miR-1281] | 60.9% | -24.6% | 10.9%
40 | CGGGCUGUCCGGAGGGGUCGGCU [hsa-miR-4741] | 65.1% | 42.5% | -21.4%
41 | ACCUUGCAUCUGCAUCCCCAG [hsa-miR-6841-3p] | 28.6% | -39.3% | 15%
42 | AGGAGCUAGCCAGGCAUAUGCA [hsa-miR-4633-3p] | 15.3% | -40.1% | 37.9%
43 | AAGGGCUUCCUCUCUGCAGGAC [hsa-miR-3158-3p] | 12.1% | -9.95% | 32.8%
44 | UGUCAGUGACUCCUGCCCCUUGGU [hsa-miR-4697-3p] | 98.6% | 3.98% | -7.45%
45 | AGCGGGGAGGAAGUGGGCGCUGCUU [hsa-miR-4706] | 32.7% | -0.458% | -0.404%
